The values below come from PMC7515635 (eLife, 2020).

First the molecules themselves.
B6: HIS6-AtC53 (natural protein)
chain: not shown
notes: C53, Arabidopsis thaliana; Monomeric by native MS; source: E. coli Rosetta2(DE3)pLysS, purified (HisTrap, ion exchange, SEC)

Where “and” joins values, the source holds several entries; their conditions need not be identical. Identical values can stand only once.

Holding throughout (settings): both partners purified
The target in one assay is T1, HIS6-HsC53 (human, UniProt Q96JB5 1-506).
T1 construct: C53 (CDK5RAP3), human; Monomeric by native MS; source: E. coli Rosetta2(DE3)pLysS, purified (HisTrap, ion exchange, SEC)
Description: SPR; competition, apparent; GST-GABARAP or GST-ATG8A captured; increasing AIM wt peptide premixed with 10 µM HsC53 or AtC53; 25°C, 50 mM sodium phosphate pH 7.0, 100 mM NaCl, 0.05% Tween-20, 0.1% BSA. A general note: In SPR one partner is held on a chip, and binding of the other changes the refractive index at the surface.

The target in assay [1] is T2, HIS6-ATG8A (Arabidopsis thaliana, UniProt Q8LEM4 1-117).
T2 construct: ATG8A, Arabidopsis thaliana; source: E. coli Rosetta2(DE3)pLysS, purified (HisTrap, ion exchange, SEC)
T2 sequence (looked up): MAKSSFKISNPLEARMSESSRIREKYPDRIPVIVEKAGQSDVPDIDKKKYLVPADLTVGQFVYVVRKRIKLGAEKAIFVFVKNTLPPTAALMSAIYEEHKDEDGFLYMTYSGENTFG
The assay can be described thus: native MS; proteins exchanged into ammonium acetate, nanoelectrospray, Synapt G2Si; C53 1-5 µM or IDR 2.5 µM with 5-20 µM ATG8A or GABARAP.

The assay “HIS6-AtC53” addresses B6. Description: SPR; competition, apparent; GST-GABARAP or GST-ATG8A captured; increasing AIM wt peptide premixed with 10 µM HsC53 or AtC53; 25°C, 50 mM sodium phosphate pH 7.0, 100 mM NaCl, 0.05% Tween-20, 0.1% BSA.
In another assay the target is T3, HIS6-GABARAP (human, UniProt O95166 1-117).
T3 construct: GABARAP, human ATG8 isoform; source: E. coli Rosetta2(DE3)pLysS, purified (HisTrap, ion exchange, SEC)
The assay can be described thus: ITC; 25°C, 50 mM sodium phosphate pH 7.0, 100 mM NaCl; cell 40 µM GABARAP or ATG8A, syringe 600 µM peptide or 250 µM IDR; one-set-of-sites model.

The target of assay [2] is T2, HIS6-ATG8A. The assay is described as above.

T1 sequence (Q96JB5 whole entry): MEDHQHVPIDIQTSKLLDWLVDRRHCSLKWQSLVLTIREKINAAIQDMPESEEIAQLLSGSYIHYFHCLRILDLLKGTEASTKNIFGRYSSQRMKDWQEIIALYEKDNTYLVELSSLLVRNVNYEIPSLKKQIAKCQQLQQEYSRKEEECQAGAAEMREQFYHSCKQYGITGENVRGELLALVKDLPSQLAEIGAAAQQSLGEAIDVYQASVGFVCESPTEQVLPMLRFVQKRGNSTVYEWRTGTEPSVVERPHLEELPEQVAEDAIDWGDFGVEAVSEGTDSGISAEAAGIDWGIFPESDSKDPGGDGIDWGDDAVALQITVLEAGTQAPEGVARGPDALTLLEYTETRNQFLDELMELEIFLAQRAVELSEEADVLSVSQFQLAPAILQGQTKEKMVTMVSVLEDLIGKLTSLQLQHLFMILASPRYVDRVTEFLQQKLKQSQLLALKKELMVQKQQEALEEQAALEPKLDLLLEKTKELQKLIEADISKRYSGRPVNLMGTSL
Sequence of HIS6-AtC53 (Q9FG23 whole entry): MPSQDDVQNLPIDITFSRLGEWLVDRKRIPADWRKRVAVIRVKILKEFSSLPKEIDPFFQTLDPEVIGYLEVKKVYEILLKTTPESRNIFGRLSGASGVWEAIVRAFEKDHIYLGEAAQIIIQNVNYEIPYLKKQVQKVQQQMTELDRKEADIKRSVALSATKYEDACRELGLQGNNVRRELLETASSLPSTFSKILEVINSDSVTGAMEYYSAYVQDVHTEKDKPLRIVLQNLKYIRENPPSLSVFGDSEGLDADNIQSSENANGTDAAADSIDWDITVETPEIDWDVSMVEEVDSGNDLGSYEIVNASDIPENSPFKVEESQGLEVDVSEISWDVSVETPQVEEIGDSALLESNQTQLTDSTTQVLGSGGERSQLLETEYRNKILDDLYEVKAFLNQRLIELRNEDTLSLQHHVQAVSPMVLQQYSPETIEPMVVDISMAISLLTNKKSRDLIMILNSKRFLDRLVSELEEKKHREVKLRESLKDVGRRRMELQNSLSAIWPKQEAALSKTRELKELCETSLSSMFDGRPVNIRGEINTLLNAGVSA

B1: GST-GABARAP (natural protein, human, UniProt O95166 1-117, looked up)
chain: MKFVYKEEHPFEKRRSEGEKIRKKYPDRVPVIVEKAPKARIGDLDKKKYLVPSDLTVGQFYFLIRKRIHLRAEDALFFFVNNVIPPTSATMGQLYQEHHEEDFFLYIAYSDESVYGL
notes: GABARAP, human ATG8 isoform; printed MW of GST-GABARAP 42458.87 Da; source: E. coli recombinant expression; bacterial lysate (pull-downs), recombinant protein (SPR); not shown: GST, N-terminal, kept
Turning to B1, the binding result with HIS6-HsC53 is “binds”.

B2: AtC53-IDR (purified) (domain or fragment, Arabidopsis thaliana, UniProt Q9FG23 264-341, looked up)
chain: ANGTDAAADSIDWDITVETPEIDWDVSMVEEVDSGNDLGSYEIVNASDIPENSPFKVEESQGLEVDVSEISWDVSVET
notes: intrinsically disordered region of Arabidopsis C53; The expected mass (about 80 residues) is too small for 239-372, the limits of MBP-AtC53^IDR; source: E. coli Rosetta2(DE3)pLysS, purified
One may read the stoichiometry N as the number of molecules, sites or subunits per partner or assembly. Regarding B2, the “stoichiometry N” value with HIS6-ATG8A [1] was 1 ATG8A per AtC53-IDR and 2 ATG8A per AtC53-IDR and 3 ATG8A per AtC53-IDR.

B3: GST-ATG8A (natural protein, Arabidopsis thaliana, UniProt Q8LEM4 1-117, looked up)
chain: MAKSSFKISNPLEARMSESSRIREKYPDRIPVIVEKAGQSDVPDIDKKKYLVPADLTVGQFVYVVRKRIKLGAEKAIFVFVKNTLPPTAALMSAIYEEHKDEDGFLYMTYSGENTFG
notes: ATG8A, Arabidopsis thaliana; printed MW of GST-ATG8A 42366.85 Da; also called AtATG8; source: E. coli recombinant expression; bacterial lysate (pull-downs), recombinant protein (SPR, peptide array); not shown: GST, N-terminal, kept
In the case of B3, in the assay with HIS6-AtC53, the binding result is “binds”.

B4: Hs-sAIM peptide (peptide)
peptide: EPLDFDIDWGLEEEM
notes: peptide with a shuffled AIM (IDWG) in the frame of the AIM wt peptide; also called Hs-sAIMC53
As to B4, the binding result in the assay with HIS6-GABARAP is on record as “binds”.

B5: At-sAIM peptide (peptide)
peptide: EPLDFDIDWDLEEEM
notes: peptide with a shuffled AIM (IDWD) in the frame of the AIM wt peptide
On to B5, for which, in the assay with HIS6-ATG8A [2], the binding result is “binds”.

Turning to B6, the “stoichiometry N” value with HIS6-ATG8A [1] is 1 ATG8A per AtC53 and 2 ATG8A per AtC53.
